# Patent publication US20150344570A1 (published 2015)
# T1: FcγRIIa H (FcγRIIa, allotype with His at position 131), extracellular domain with C-terminal His tag (human, UniProt P12318 34-217)
# T1 construct: extracellular domain; also called FcgRIIa H; 2aH; not shown: His tag at the C terminus
# T1 sequence (looked up): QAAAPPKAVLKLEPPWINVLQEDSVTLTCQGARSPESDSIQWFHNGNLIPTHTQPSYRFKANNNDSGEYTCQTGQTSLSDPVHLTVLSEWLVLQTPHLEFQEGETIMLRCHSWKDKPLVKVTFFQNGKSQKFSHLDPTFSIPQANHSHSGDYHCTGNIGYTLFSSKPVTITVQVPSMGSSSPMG
# T2: FcγRIIb, extracellular domain with C-terminal His tag (human, UniProt P31994 43-217)
# T2 construct: extracellular domain; also called FcgRIIb; 2b; not shown: His tag at the C terminus
# T2 sequence (looked up): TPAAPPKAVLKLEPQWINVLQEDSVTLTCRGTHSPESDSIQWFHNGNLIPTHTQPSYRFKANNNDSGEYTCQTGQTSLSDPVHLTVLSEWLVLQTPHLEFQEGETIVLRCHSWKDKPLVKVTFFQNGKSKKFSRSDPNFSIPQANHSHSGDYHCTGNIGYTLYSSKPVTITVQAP
# B1: GpH7-A5/GpH7-B3 variant N325_01G/GpL16-k0 (antibody, human IgG1, kappa)
# heavy 1: not shown
# heavy 2: not shown
# light: DIVMTQSPLSLPVTPGEPASISCQASESLVHSNRNTYLHWYLQKPGQSPQLLIYKVSNRFSGVPDRFSGSGSGTDFTLKISRVEAEDVGVYYCSQNTHVPPTFGQGTKVEIERTVAAPSVFIFPPSDEQLKSGTASVVCLLNNFYPREAKVQWKVDNALQSGNSQESVTEQDSKDSTYSLSSTLTLSKADYEKHKVYACEVTHQGLSSPVTKSFNRGEC
# notes: Heterodimerized anti-glypican-3 IgG1; mutation in one H chain only; also called He Ab
# B2: GpH7-A5/GpH7-B3 variant K326_08L/GpL16-k0 (antibody, human IgG1, kappa)
# heavy 1: not shown
# heavy 2: not shown
# light: B1 light
# notes: as for B1
# B3: GpH7-A5/GpH7-B3 variant N325_04F/GpL16-k0 (antibody, human IgG1, kappa)
# heavy 1: not shown
# heavy 2: not shown
# light: B1 light
# notes: as for B1
# B4: GpH7-A5/GpH7-B3 variant N325_09D/GpL16-k0 (antibody, human IgG1, kappa)
# heavy 1: not shown
# heavy 2: not shown
# light: B1 light
# notes: as for B1
# B5: GpH7-A5/GpH7-B3 variant N325_02A/GpL16-k0 (antibody, human IgG1, kappa)
# heavy 1: not shown
# heavy 2: not shown
# light: B1 light
# notes: as for B1
# B6: GpH7-A5/GpH7-B3 variant K326_09D/GpL16-k0 (antibody, human IgG1, kappa)
# heavy 1: not shown
# heavy 2: not shown
# light: B1 light
# notes: as for B1
# B7: GpH7-A5/GpH7-B3 variant K326_15Y/GpL16-k0 (antibody, human IgG1, kappa)
# heavy 1: not shown
# heavy 2: not shown
# light: B1 light
# notes: as for B1
# B8: GpH7-A5/GpH7-B3 variant N325_10E/GpL16-k0 (antibody, human IgG1, kappa)
# heavy 1: not shown
# heavy 2: not shown
# light: B1 light
# notes: as for B1
# B9: GpH7-A5/GpH7-B3 variant K326_14T/GpL16-k0 (antibody, human IgG1, kappa)
# heavy 1: not shown
# heavy 2: not shown
# light: B1 light
# notes: as for B1
# B10: GpH7-A5/GpH7-B3 variant K326_04F/GpL16-k0 (antibody, human IgG1, kappa)
# heavy 1: not shown
# heavy 2: not shown
# light: B1 light
# notes: as for B1
# B11: GpH7-A5/GpH7-B3 variant N325_05P/GpL16-k0 (antibody, human IgG1, kappa)
# heavy 1: not shown
# heavy 2: not shown
# light: B1 light
# notes: as for B1
# B12: GpH7-A5/GpH7-B3 variant K326_07I/GpL16-k0 (antibody, human IgG1, kappa)
# heavy 1: not shown
# heavy 2: not shown
# light: B1 light
# notes: as for B1
# B13: GpH7-A5/GpH7-B3 variant N325_03V/GpL16-k0 (antibody, human IgG1, kappa)
# heavy 1: not shown
# heavy 2: not shown
# light: B1 light
# notes: as for B1
# B14: GpH7-A5/GpH7-B3 variant K326_19Q/GpL16-k0 (antibody, human IgG1, kappa)
# heavy 1: not shown
# heavy 2: not shown
# light: B1 light
# notes: as for B1
# B15: GpH7-A5/GpH7-B3 variant N325_07I/GpL16-k0 (antibody, human IgG1, kappa)
# heavy 1: not shown
# heavy 2: not shown
# light: B1 light
# notes: as for B1
# B16: GpH7-A5/GpH7-B3 variant N325_08L/GpL16-k0 (antibody, human IgG1, kappa)
# heavy 1: not shown
# heavy 2: not shown
# light: B1 light
# notes: as for B1
# B17: GpH7-A5/GpH7-B3 variant K326_20W/GpL16-k0 (antibody, human IgG1, kappa)
# heavy 1: not shown
# heavy 2: not shown
# light: B1 light
# notes: as for B1
# B18: GpH7-A5/GpH7-B3 variant K326_06M/GpL16-k0 (antibody, human IgG1, kappa)
# heavy 1: not shown
# heavy 2: not shown
# light: B1 light
# notes: as for B1
# Target: T1, FcγRIIa H (FcγRIIa, allotype with His …)
# Test: SPR (Biacore), relative binding vs GpH7-A5/GpH7-B3/GpL16-k0
row,He/Con_2aH,Binder
1,56.8 % of HeCon Ab (=100),B1
2,92.7 % of HeCon Ab (=100),B2
3,33.4 % of HeCon Ab (=100),B3
4,53.1 % of HeCon Ab (=100),B4
5,47.6 % of HeCon Ab (=100),B5
6,110 % of HeCon Ab (=100),B6
7,98.3 % of HeCon Ab (=100),B7
8,52.5 % of HeCon Ab (=100),B8
9,114 % of HeCon Ab (=100),B9
10,97 % of HeCon Ab (=100),B10
11,20.7 % of HeCon Ab (=100),B11
12,100 % of HeCon Ab (=100),B12
13,45.2 % of HeCon Ab (=100),B13
14,101 % of HeCon Ab (=100),B14
15,38.1 % of HeCon Ab (=100),B15
16,52 % of HeCon Ab (=100),B16
17,83.3 % of HeCon Ab (=100),B17
18,103 % of HeCon Ab (=100),B18

# Target: T2, FcγRIIb, extracellular domain with …
# Test: as above
row,He/Con_2b,Binder
1,101 % of HeCon Ab (=100),B1
2,177 % of HeCon Ab (=100),B2
3,143 % of HeCon Ab (=100),B3
4,124 % of HeCon Ab (=100),B4
5,64.4 % of HeCon Ab (=100),B5
6,193 % of HeCon Ab (=100),B6
7,159 % of HeCon Ab (=100),B7
8,95.9 % of HeCon Ab (=100),B8
9,150 % of HeCon Ab (=100),B9
10,155 % of HeCon Ab (=100),B10
11,26 % of HeCon Ab (=100),B11
12,199 % of HeCon Ab (=100),B12
13,111 % of HeCon Ab (=100),B13
14,139 % of HeCon Ab (=100),B14
15,171 % of HeCon Ab (=100),B15
16,197 % of HeCon Ab (=100),B16
17,148 % of HeCon Ab (=100),B17
18,165 % of HeCon Ab (=100),B18

# Target: T1, FcγRIIa H (FcγRIIa, allotype with His …)
# Test: SPR (Biacore); He/Con_2aH divided by He/Con_2b (FcγRIIb)
row,He_2aH/2b (IIaH/IIb) [ratio],Binder
1,0.56,B1
2,0.52,B2
3,0.23,B3
4,0.43,B4
5,0.74,B5
6,0.57,B6
7,0.62,B7
8,0.55,B8
9,0.77,B9
10,0.63,B10
11,0.8,B11
12,0.5,B12
13,0.41,B13
14,0.73,B14
15,0.22,B15
16,0.26,B16
17,0.56,B17
18,0.63,B18
